Measurements: patent publication US20200270325A1 (Merck Sharp & Dohme, published 2020)
Numbered stars: 1 amine (or outer) side, 2 acyl side, 3 side chain; on linkers, the order of the positions; unused ones are H or OH. Square brackets hold non-standard residues; d marks the D form. Primed or numbered codes have the meaning given here. Side chains are listed from the residue outwards. Ends that are not written are not given here. * marks the point of attachment. Phe(4-CH2NH2) = NCc1ccc(C[C@H](N)C(=O)O)cc1; C18 diacid = O=C(O)CCCCCCCCCCCCCCCCC(=O)*; C16 diacid = O=C(O)CCCCCCCCCCCCCCC(=O)*; γGlu = O=C(O)[C@H](CCC(=O)[*:2])N[*:1]; Met(O2) = CS(=O)(=O)CC[C@H](N)C(=O)O; αMeD = C[C@](N)(CC(=O)O)C(=O)O; αMeS = C[C@](N)(CO)C(=O)O; PEG2′ = not defined here; AEEA = NCCOCCOCC(=O)O; Aib = CC(C)(N)C(=O)O

How the values were obtained:
[1] = target: human Glucagon receptor (GCGR) (human, UniProt P47871 26-477); assay: cell-based or functional assay
Sequence of human Glucagon receptor (GCGR) (P47871 26-477): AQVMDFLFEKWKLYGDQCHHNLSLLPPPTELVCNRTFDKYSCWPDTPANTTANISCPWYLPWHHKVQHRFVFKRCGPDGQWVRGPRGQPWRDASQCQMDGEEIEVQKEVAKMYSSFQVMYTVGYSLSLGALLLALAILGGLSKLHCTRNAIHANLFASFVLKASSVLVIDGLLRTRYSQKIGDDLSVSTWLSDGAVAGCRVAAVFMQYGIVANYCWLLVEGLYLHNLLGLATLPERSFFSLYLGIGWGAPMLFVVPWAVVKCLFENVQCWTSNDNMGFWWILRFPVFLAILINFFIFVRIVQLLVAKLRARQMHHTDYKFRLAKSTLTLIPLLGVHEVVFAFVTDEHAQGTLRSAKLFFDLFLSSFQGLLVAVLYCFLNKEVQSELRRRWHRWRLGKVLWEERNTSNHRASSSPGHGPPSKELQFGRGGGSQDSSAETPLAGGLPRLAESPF

[2] = target: human GLP-1 receptor (GLP1R) (human, UniProt P43220 24-463); assay: cell-based or functional assay

Binder | GCGR EC50 human [1] [nM] | GLP1R EC50 human [2] [nM]
H[αMeS]QGTFTSDYSKYLD[Aib]RAAQK([AEEA-AEEA-γGlu-C18 diacid])FVQWL[Met(O2)][αMeD]T-NH2 (N-terminus assumed; SMILES CC(C)C[C@H](NC(=O)[C@H](Cc1ccc(O)cc1)NC(=O)[C@H](CCCCN)NC(=O)[C@H](CO)NC(=O)[C@H](Cc1ccc(O)cc1)NC(=O)[C@H](CC(=O)O)NC(=O)[C@H](CO)NC(=O)[C@@H](NC(=O)[C@H](Cc1ccccc1)NC(=O)[C@@H](NC(=O)CNC(=O)[C@H](CCC(N)=O)NC(=O)[C@](C)(CO)NC(=O)[C@@H](N)Cc1c[nH]cn1)[C@@H](C)O)[C@@H](C)O)C(=O)N[C@@H](CC(=O)O)C(=O)NC(C)(C)C(=O)N[C@@H](CCCNC(=N)N)C(=O)N[C@@H](C)C(=O)N[C@@H](C)C(=O)N[C@@H](CCC(N)=O)C(=O)N[C@@H](CCCCNC(=O)COCCOCCNC(=O)COCCOCCNC(=O)CC[C@H](NC(=O)CCCCCCCCCCCCCCCCC(=O)O)C(=O)O)C(=O)N[C@@H](Cc1ccccc1)C(=O)N[C@H](C(=O)N[C@@H](CCC(N)=O)C(=O)N[C@@H](Cc1c[nH]c2ccccc12)C(=O)N[C@@H](CC(C)C)C(=O)N[C@@H](CCS(C)(=O)=O)C(=O)N[C@@](C)(CC(=O)O)C(=O)N[C@H](C(N)=O)[C@@H](C)O)C(C)C) [TP621] | 0.25 | 1.94
H[αMeS]QGTFTSDYSKYLDARAAQK([AEEA-AEEA-γGlu-C16 diacid])FVQWL[Met(O2)][αMeD]T-NH2 (N-terminus assumed; SMILES CC(C)C[C@H](NC(=O)[C@H](Cc1ccc(O)cc1)NC(=O)[C@H](CCCCN)NC(=O)[C@H](CO)NC(=O)[C@H](Cc1ccc(O)cc1)NC(=O)[C@H](CC(=O)O)NC(=O)[C@H](CO)NC(=O)[C@@H](NC(=O)[C@H](Cc1ccccc1)NC(=O)[C@@H](NC(=O)CNC(=O)[C@H](CCC(N)=O)NC(=O)[C@](C)(CO)NC(=O)[C@@H](N)Cc1c[nH]cn1)[C@@H](C)O)[C@@H](C)O)C(=O)N[C@@H](CC(=O)O)C(=O)N[C@@H](C)C(=O)N[C@@H](CCCNC(=N)N)C(=O)N[C@@H](C)C(=O)N[C@@H](C)C(=O)N[C@@H](CCC(N)=O)C(=O)N[C@@H](CCCCNC(=O)COCCOCCNC(=O)COCCOCCNC(=O)CC[C@H](NC(=O)CCCCCCCCCCCCCCC(=O)O)C(=O)O)C(=O)N[C@@H](Cc1ccccc1)C(=O)N[C@H](C(=O)N[C@@H](CCC(N)=O)C(=O)N[C@@H](Cc1c[nH]c2ccccc12)C(=O)N[C@@H](CC(C)C)C(=O)N[C@@H](CCS(C)(=O)=O)C(=O)N[C@@](C)(CC(=O)O)C(=O)N[C@H](C(N)=O)[C@@H](C)O)C(C)C) [TP615] | 0.26 | 0.4
H[αMeS]QGTFTSDYSKYLDARAAK([AEEA-AEEA-γGlu-C18 diacid])DFVQWL[Met(O2)][αMeD]T-NH2 (N-terminus assumed; SMILES CC(C)C[C@H](NC(=O)[C@H](Cc1ccc(O)cc1)NC(=O)[C@H](CCCCN)NC(=O)[C@H](CO)NC(=O)[C@H](Cc1ccc(O)cc1)NC(=O)[C@H](CC(=O)O)NC(=O)[C@H](CO)NC(=O)[C@@H](NC(=O)[C@H](Cc1ccccc1)NC(=O)[C@@H](NC(=O)CNC(=O)[C@H](CCC(N)=O)NC(=O)[C@](C)(CO)NC(=O)[C@@H](N)Cc1c[nH]cn1)[C@@H](C)O)[C@@H](C)O)C(=O)N[C@@H](CC(=O)O)C(=O)N[C@@H](C)C(=O)N[C@@H](CCCNC(=N)N)C(=O)N[C@@H](C)C(=O)N[C@@H](C)C(=O)N[C@@H](CCCCNC(=O)COCCOCCNC(=O)COCCOCCNC(=O)CC[C@H](NC(=O)CCCCCCCCCCCCCCCCC(=O)O)C(=O)O)C(=O)N[C@@H](CC(=O)O)C(=O)N[C@@H](Cc1ccccc1)C(=O)N[C@H](C(=O)N[C@@H](CCC(N)=O)C(=O)N[C@@H](Cc1c[nH]c2ccccc12)C(=O)N[C@@H](CC(C)C)C(=O)N[C@@H](CCS(C)(=O)=O)C(=O)N[C@@](C)(CC(=O)O)C(=O)N[C@H](C(N)=O)[C@@H](C)O)C(C)C) [TP616] | 1.39 | 1.96
H[αMeS]QGTFTSDYSKYLD[Aib]RAAK([AEEA-AEEA-γGlu-C18 diacid])DFVQWL[Met(O2)][αMeD]T-NH2 (N-terminus assumed; SMILES CC(C)C[C@H](NC(=O)[C@H](Cc1ccc(O)cc1)NC(=O)[C@H](CCCCN)NC(=O)[C@H](CO)NC(=O)[C@H](Cc1ccc(O)cc1)NC(=O)[C@H](CC(=O)O)NC(=O)[C@H](CO)NC(=O)[C@@H](NC(=O)[C@H](Cc1ccccc1)NC(=O)[C@@H](NC(=O)CNC(=O)[C@H](CCC(N)=O)NC(=O)[C@](C)(CO)NC(=O)[C@@H](N)Cc1c[nH]cn1)[C@@H](C)O)[C@@H](C)O)C(=O)N[C@@H](CC(=O)O)C(=O)NC(C)(C)C(=O)N[C@@H](CCCNC(=N)N)C(=O)N[C@@H](C)C(=O)N[C@@H](C)C(=O)N[C@@H](CCCCNC(=O)COCCOCCNC(=O)COCCOCCNC(=O)CC[C@H](NC(=O)CCCCCCCCCCCCCCCCC(=O)O)C(=O)O)C(=O)N[C@@H](CC(=O)O)C(=O)N[C@@H](Cc1ccccc1)C(=O)N[C@H](C(=O)N[C@@H](CCC(N)=O)C(=O)N[C@@H](Cc1c[nH]c2ccccc12)C(=O)N[C@@H](CC(C)C)C(=O)N[C@@H](CCS(C)(=O)=O)C(=O)N[C@@](C)(CC(=O)O)C(=O)N[C@H](C(N)=O)[C@@H](C)O)C(C)C) [TP620] | 1.26 | 8.58
H[αMS]QGTFTSDYSKYLD[Aib]RAAQK([PEG2′-PEG2′-γGlu-C16 diacid])FVQWL[Met(O2)][αMD]T-NH2 [TP619] | 0.05 | 0.38
H[αMeS]QGTFTSDYSKYLD[Aib]RAAK([AEEA-AEEA-γGlu-C16 diacid])DFVQWL[Met(O2)][αMeD]T-NH2 (N-terminus assumed; SMILES CC(C)C[C@H](NC(=O)[C@H](Cc1ccc(O)cc1)NC(=O)[C@H](CCCCN)NC(=O)[C@H](CO)NC(=O)[C@H](Cc1ccc(O)cc1)NC(=O)[C@H](CC(=O)O)NC(=O)[C@H](CO)NC(=O)[C@@H](NC(=O)[C@H](Cc1ccccc1)NC(=O)[C@@H](NC(=O)CNC(=O)[C@H](CCC(N)=O)NC(=O)[C@](C)(CO)NC(=O)[C@@H](N)Cc1c[nH]cn1)[C@@H](C)O)[C@@H](C)O)C(=O)N[C@@H](CC(=O)O)C(=O)NC(C)(C)C(=O)N[C@@H](CCCNC(=N)N)C(=O)N[C@@H](C)C(=O)N[C@@H](C)C(=O)N[C@@H](CCCCNC(=O)COCCOCCNC(=O)COCCOCCNC(=O)CC[C@H](NC(=O)CCCCCCCCCCCCCCC(=O)O)C(=O)O)C(=O)N[C@@H](CC(=O)O)C(=O)N[C@@H](Cc1ccccc1)C(=O)N[C@H](C(=O)N[C@@H](CCC(N)=O)C(=O)N[C@@H](Cc1c[nH]c2ccccc12)C(=O)N[C@@H](CC(C)C)C(=O)N[C@@H](CCS(C)(=O)=O)C(=O)N[C@@](C)(CC(=O)O)C(=O)N[C@H](C(N)=O)[C@@H](C)O)C(C)C) [TP618] | 0.36 | 2.48
H[αMeS]QGTFTSDYSKYLDARAAQK([AEEA-AEEA-γGlu-C18 diacid])FVQWL[Met(O2)][αMeD]T-NH2 (N-terminus assumed; SMILES CC(C)C[C@H](NC(=O)[C@H](Cc1ccc(O)cc1)NC(=O)[C@H](CCCCN)NC(=O)[C@H](CO)NC(=O)[C@H](Cc1ccc(O)cc1)NC(=O)[C@H](CC(=O)O)NC(=O)[C@H](CO)NC(=O)[C@@H](NC(=O)[C@H](Cc1ccccc1)NC(=O)[C@@H](NC(=O)CNC(=O)[C@H](CCC(N)=O)NC(=O)[C@](C)(CO)NC(=O)[C@@H](N)Cc1c[nH]cn1)[C@@H](C)O)[C@@H](C)O)C(=O)N[C@@H](CC(=O)O)C(=O)N[C@@H](C)C(=O)N[C@@H](CCCNC(=N)N)C(=O)N[C@@H](C)C(=O)N[C@@H](C)C(=O)N[C@@H](CCC(N)=O)C(=O)N[C@@H](CCCCNC(=O)COCCOCCNC(=O)COCCOCCNC(=O)CC[C@H](NC(=O)CCCCCCCCCCCCCCCCC(=O)O)C(=O)O)C(=O)N[C@@H](Cc1ccccc1)C(=O)N[C@H](C(=O)N[C@@H](CCC(N)=O)C(=O)N[C@@H](Cc1c[nH]c2ccccc12)C(=O)N[C@@H](CC(C)C)C(=O)N[C@@H](CCS(C)(=O)=O)C(=O)N[C@@](C)(CC(=O)O)C(=O)N[C@H](C(N)=O)[C@@H](C)O)C(C)C) [TP617] | 0.56 | 0.76
H[Aib]QGTFTSD[Phe(4-CH2NH2)]([AEEA-γGlu-C16 diacid])SKYLDARAAQDFVQWL[Met(O2)]DT-NH2 (N-terminus assumed; SMILES CC(C)C[C@H](NC(=O)[C@H](Cc1ccc(O)cc1)NC(=O)[C@H](CCCCN)NC(=O)[C@H](CO)NC(=O)[C@H](Cc1ccc(CNC(=O)COCCOCCNC(=O)CC[C@H](NC(=O)CCCCCCCCCCCCCCC(=O)O)C(=O)O)cc1)NC(=O)[C@H](CC(=O)O)NC(=O)[C@H](CO)NC(=O)[C@@H](NC(=O)[C@H](Cc1ccccc1)NC(=O)[C@@H](NC(=O)CNC(=O)[C@H](CCC(N)=O)NC(=O)C(C)(C)NC(=O)[C@@H](N)Cc1c[nH]cn1)[C@@H](C)O)[C@@H](C)O)C(=O)N[C@@H](CC(=O)O)C(=O)N[C@@H](C)C(=O)N[C@@H](CCCNC(=N)N)C(=O)N[C@@H](C)C(=O)N[C@@H](C)C(=O)N[C@@H](CCC(N)=O)C(=O)N[C@@H](CC(=O)O)C(=O)N[C@@H](Cc1ccccc1)C(=O)N[C@H](C(=O)N[C@@H](CCC(N)=O)C(=O)N[C@@H](Cc1c[nH]c2ccccc12)C(=O)N[C@@H](CC(C)C)C(=O)N[C@@H](CCS(C)(=O)=O)C(=O)N[C@@H](CC(=O)O)C(=O)N[C@H](C(N)=O)[C@@H](C)O)C(C)C) [TP622] | 0.03 | 0.09
